Assay results: patent publication US20260045319A1 (UNIVERSITY COURT OF THE UNIVERSITY OF ST ANDREWS, published 2026)

Biological target: the molecule itself
Experiment: size exclusion chromatography on a column calibrated with protein standards; self-association

B1: Dsg407 from Cyanophage Syn10 GenBank: AGH56623.1 (enzyme)
chain: MKIESVAIVGGGSSGWMTAAALSKLCPQLEIALIEDPNIKTVGVGESTLGHFNKFLHLLDLKDEDWMPACNATYKNSIRFTNFREGKGEVFEYPFGPSLDVSFFSQTDGINTWGKLANKYPEDFPPETFARFVNSNTYLAEHNRLTRNKDNKIPNFNFDWDTAYHIDAELFGQYLKEKIALPNGVKHIQGKVTGYQKESPNNHNFKYIILDQETAIFADLYIDCTGFKSLLLGEFMGEAFSPFSKKLANDKAMATRIPYENREEEMHNVTDCHAMKNGWVWNIPLWNRIGTGYCYSSRFVSKDDAEAEFREHLGERGKDAKIFHIDIGHGKRTRAWVNNCVGIGLSYGFIEPLESTGLLTTHENIENLVYLINQRDGYVTQAERDGFNYTCDHQIDSFSDFVAMHYAYSMRTDTPYWKWCTQMCNYMPESMGPHRQKQSTWQDLSTDTIGLNTWHINHNGISFIIAGHGLRPQSYDKLSEVLLKRNNESDYYYEDIRKDWLKHYESMVEYVKTLPTHYEFLRDEIYGSAE
notes: also called hypothetical protein CPUG_00131; viral halogenase Dsg407
binding result: binds
